The source of these data is patent US20220402983A1 (Janssen / Centocor, published 2022).

This assay concerns the target T1, human IL-23R (interleukin-23 receptor) (human, UniProt Q5VWK5 24-629).
T1 sequence (looked up): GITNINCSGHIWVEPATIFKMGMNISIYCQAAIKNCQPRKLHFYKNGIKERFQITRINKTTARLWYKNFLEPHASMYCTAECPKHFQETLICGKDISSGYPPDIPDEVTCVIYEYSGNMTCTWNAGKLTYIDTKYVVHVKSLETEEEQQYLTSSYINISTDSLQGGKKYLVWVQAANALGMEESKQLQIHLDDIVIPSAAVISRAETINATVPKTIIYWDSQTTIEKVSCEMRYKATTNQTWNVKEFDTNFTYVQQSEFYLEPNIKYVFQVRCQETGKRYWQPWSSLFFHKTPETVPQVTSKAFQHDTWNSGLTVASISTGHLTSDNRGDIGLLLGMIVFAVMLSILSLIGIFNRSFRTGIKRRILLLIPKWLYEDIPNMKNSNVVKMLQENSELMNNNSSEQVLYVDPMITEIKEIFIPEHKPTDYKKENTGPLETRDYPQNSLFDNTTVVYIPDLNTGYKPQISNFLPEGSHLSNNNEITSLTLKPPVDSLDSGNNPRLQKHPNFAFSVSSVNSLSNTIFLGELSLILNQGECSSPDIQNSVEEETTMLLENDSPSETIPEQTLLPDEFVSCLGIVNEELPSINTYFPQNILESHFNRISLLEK
Put plainly: cell-based or functional assay.

Bridges are numbered along the chain shown (N, C = ends). [ ]: non-standard residue; d: D form. The star is where a group is joined. Trp(7-Me) = Cc1cccc2c(C[C@H](N)C(=O)O)c[nH]c12; Ac6c(4,4-F2) = NC1(C(=O)O)CCC(F)(F)CC1; 2Nal = N[C@@H](Cc1ccc2ccccc2c1)C(=O)O; AEF = NCCOc1ccc(C[C@H](N)C(=O)O)cc1; αMeY = C[C@](N)(Cc1ccc(O)cc1)C(=O)O; αMeF = C[C@](N)(Cc1ccccc1)C(=O)O; αMeE = C[C@](N)(CCC(=O)O)C(=O)O; Cit = NC(=O)NCCC[C@H](N)C(=O)O; αMeL = CC(C)C[C@](C)(N)C(=O)O; Pen = CC(C)(S)[C@H](N)C(=O)O; αMeK = C[C@](N)(CCCCN)C(=O)O; Ac6c = NC1(C(=O)O)CCCCC1; Thp = NC1(C(=O)O)CCOCC1; Abu = CC[C@H](N)C(=O)O; Boc = CC(C)(C)OC(=O)*; Aib = CC(C)(N)C(=O)O; Piv = CC(C)(C)C(=O)*; Tfa = O=C(C(F)(F)F)*

Consider PentCO-[dR][Pen]NT[Trp(7-Me)]K(Ac)[Pen][AEF][2Nal][Thp]EN[αMeF]-NH2 (disulfide 2-7) [Compound No. 142], for which the “PBMC pSTAT3 IC50 (nM)” value was 4.9 nM.

B1: Compound No. 305 (peptide)
peptide: H-[dR][Pen]NT[Trp(7-Me)]K(Ac)[Pen][AEF](Boc)[2Nal][Thp]EN[αMeF]-NH2
modifications: disulfide 2-7
SMILES: CC(=O)NCCCC[C@@H]1NC(=O)[C@H](Cc2c[nH]c3c(C)cccc23)NC(=O)[C@H]([C@@H](C)O)NC(=O)[C@H](CC(N)=O)NC(=O)[C@@H](NC(=O)[C@H](N)CCCNC(=N)N)C(C)(C)SSC(C)(C)[C@@H](C(=O)N[C@@H](Cc2ccc(OCCNC(=O)OC(C)(C)C)cc2)C(=O)N[C@@H](Cc2ccc3ccccc3c2)C(=O)NC2(C(=O)N[C@@H](CCC(=O)O)C(=O)N[C@@H](CC(N)=O)C(=O)N[C@@](C)(Cc3ccccc3)C(N)=O)CCOCC2)NC1=O
Take B1: the “PBMC pSTAT3 IC50 (nM)” value came to 17 nM.

B2: Compound No. 141 (peptide)
peptide: Ac-[Pen]NT[Trp(7-Me)]K(Ac)[Pen][AEF][2Nal][Thp]K(Piv)N[Thp]-NH2
modifications: disulfide 1-6
SMILES: CC(=O)NCCCC[C@@H]1NC(=O)[C@H](Cc2c[nH]c3c(C)cccc23)NC(=O)[C@H]([C@@H](C)O)NC(=O)[C@H](CC(N)=O)NC(=O)[C@@H](NC(C)=O)C(C)(C)SSC(C)(C)[C@@H](C(=O)N[C@@H](Cc2ccc(OCCN)cc2)C(=O)N[C@@H](Cc2ccc3ccccc3c2)C(=O)NC2(C(=O)N[C@@H](CCCCNC(=O)C(C)(C)C)C(=O)N[C@@H](CC(N)=O)C(=O)NC3(C(N)=O)CCOCC3)CCOCC2)NC1=O
With B2, the “PBMC pSTAT3 IC50 (nM)” value was determined as 3.7 nM.

B3: Compound No. 138 (peptide)
peptide: Ac-[Pen]NT[Trp(7-Me)]K(Ac)[Pen][AEF][2Nal][Thp]K(Tfa)N[αMeF]-NH2
modifications: disulfide 1-6
SMILES: CC(=O)NCCCC[C@@H]1NC(=O)[C@H](Cc2c[nH]c3c(C)cccc23)NC(=O)[C@H]([C@@H](C)O)NC(=O)[C@H](CC(N)=O)NC(=O)[C@@H](NC(C)=O)C(C)(C)SSC(C)(C)[C@@H](C(=O)N[C@@H](Cc2ccc(OCCN)cc2)C(=O)N[C@@H](Cc2ccc3ccccc3c2)C(=O)NC2(C(=O)N[C@@H](CCCCNC(=O)C(F)(F)F)C(=O)N[C@@H](CC(N)=O)C(=O)N[C@@](C)(Cc3ccccc3)C(N)=O)CCOCC2)NC1=O
With B3, the “PBMC pSTAT3 IC50 (nM)” value is 7.6 nM.
On to Ac-[dR][Abu]QTWQC[AEF][2Nal][Ac6c][αMeE]NF[Aib][αMeK]-NH2 (thioether 2-7) [Compound No. 301], for which the “PBMC pSTAT3 IC50 (nM)” value turned out to be 24 nM.

B4: Compound No. 303 (peptide)
peptide: Ac-[dR][Pen]NT[Trp(7-Me)]K(Ac)[Pen][AEF][2Nal][Ac6c(4,4-F2)]EN[Thp]-NH2
modifications: disulfide 2-7
SMILES: CC(=O)NCCCC[C@@H]1NC(=O)[C@H](Cc2c[nH]c3c(C)cccc23)NC(=O)[C@H]([C@@H](C)O)NC(=O)[C@H](CC(N)=O)NC(=O)[C@@H](NC(=O)[C@@H](CCCNC(=N)N)NC(C)=O)C(C)(C)SSC(C)(C)[C@@H](C(=O)N[C@@H](Cc2ccc(OCCN)cc2)C(=O)N[C@@H](Cc2ccc3ccccc3c2)C(=O)NC2(C(=O)N[C@@H](CCC(=O)O)C(=O)N[C@@H](CC(N)=O)C(=O)NC3(C(N)=O)CCOCC3)CCC(F)(F)CC2)NC1=O
With B4, the “PBMC pSTAT3 IC50 (nM)” value amounted to 1.3 nM.

B5: Compound No. 139 (peptide)
peptide: Ac-[Pen]NT[Trp(7-Me)]K(Ac)[Pen][AEF][2Nal][Thp]K(Piv)N[αMeF]-NH2
modifications: disulfide 1-6
SMILES: CC(=O)NCCCC[C@@H]1NC(=O)[C@H](Cc2c[nH]c3c(C)cccc23)NC(=O)[C@H]([C@@H](C)O)NC(=O)[C@H](CC(N)=O)NC(=O)[C@@H](NC(C)=O)C(C)(C)SSC(C)(C)[C@@H](C(=O)N[C@@H](Cc2ccc(OCCN)cc2)C(=O)N[C@@H](Cc2ccc3ccccc3c2)C(=O)NC2(C(=O)N[C@@H](CCCCNC(=O)C(C)(C)C)C(=O)N[C@@H](CC(N)=O)C(=O)N[C@@](C)(Cc3ccccc3)C(N)=O)CCOCC2)NC1=O
With B5, the “PBMC pSTAT3 IC50 (nM)” value came out at 6.6 nM.

B6: Compound No. 302 (peptide)
peptide: Ac-[Pen]NT[Trp(7-Me)][Cit][Pen][AEF][2Nal][αMeK]K(Ac)N[Aib]-NH2
modifications: disulfide 1-6
SMILES: CC(=O)NCCCC[C@H](NC(=O)[C@](C)(CCCCN)NC(=O)[C@H](Cc1ccc2ccccc2c1)NC(=O)[C@H](Cc1ccc(OCCN)cc1)NC(=O)[C@H]1NC(=O)[C@H](CCCNC(N)=O)NC(=O)[C@H](Cc2c[nH]c3c(C)cccc23)NC(=O)[C@H]([C@@H](C)O)NC(=O)[C@H](CC(N)=O)NC(=O)[C@@H](NC(C)=O)C(C)(C)SSC1(C)C)C(=O)N[C@@H](CC(N)=O)C(=O)NC(C)(C)C(N)=O
Take B6: the “PBMC pSTAT3 IC50 (nM)” value was determined as 7 nM.

B7: Compound No. 140 (peptide)
peptide: Ac-[Pen]NT[Trp(7-Me)]K(Ac)[Pen][AEF][2Nal][Thp]K(Tfa)N[Thp]-NH2
modifications: disulfide 1-6
SMILES: CC(=O)NCCCC[C@@H]1NC(=O)[C@H](Cc2c[nH]c3c(C)cccc23)NC(=O)[C@H]([C@@H](C)O)NC(=O)[C@H](CC(N)=O)NC(=O)[C@@H](NC(C)=O)C(C)(C)SSC(C)(C)[C@@H](C(=O)N[C@@H](Cc2ccc(OCCN)cc2)C(=O)N[C@@H](Cc2ccc3ccccc3c2)C(=O)NC2(C(=O)N[C@@H](CCCCNC(=O)C(F)(F)F)C(=O)N[C@@H](CC(N)=O)C(=O)NC3(C(N)=O)CCOCC3)CCOCC2)NC1=O
For B7, the “PBMC pSTAT3 IC50 (nM)” value worked out at 2.6 nM.
Take FlagTag-[dR][Pen]NT[Trp(7-Me)]K(Ac)[Pen][AEF][2Nal][Thp]EN[Thp]-NH2 (disulfide 2-7; also: FlagTag sequence not given here) [Compound No. 146]: the “PBMC pSTAT3 IC50 (nM)” value came to 8.9 nM.
Turning to Ac-[dR][Abu]QT[Trp(7-Me)]K(Ac)C[AEF][2Nal][αMeK]K(Ac)N[αMeF]-NH2 (thioether 2-7) [Compound No. 201], the “pStat3 HTRF (nM), IC50, DB cells IL23R pSTAT3 cell assay” value came out at 12.7 nM.

B8: Compound No. 202 (peptide)
peptide: Ac-[Pen]NT[Trp(7-Me)][Cit][Pen][AEF][2Nal][αMeK]K(Ac)N[Aib][dY]-NH2
modifications: disulfide 1-6
SMILES: CC(=O)NCCCC[C@H](NC(=O)[C@](C)(CCCCN)NC(=O)[C@H](Cc1ccc2ccccc2c1)NC(=O)[C@H](Cc1ccc(OCCN)cc1)NC(=O)[C@H]1NC(=O)[C@H](CCCNC(N)=O)NC(=O)[C@H](Cc2c[nH]c3c(C)cccc23)NC(=O)[C@H]([C@@H](C)O)NC(=O)[C@H](CC(N)=O)NC(=O)[C@@H](NC(C)=O)C(C)(C)SSC1(C)C)C(=O)N[C@@H](CC(N)=O)C(=O)NC(C)(C)C(=O)N[C@H](Cc1ccc(O)cc1)C(N)=O
In the case of B8, the “pStat3 HTRF (nM), IC50, DB cells IL23R pSTAT3 cell assay” value worked out at 0.637 nM.

B9: Compound No. 149 (peptide)
peptide: Ac-[dR][Pen]NT[Trp(7-Me)][Cit][Pen][AEF][2Nal][αMeL]EN[αMeF]-NH2
modifications: disulfide 2-7
SMILES: CC(=O)N[C@H](CCCNC(=N)N)C(=O)N[C@@H]1C(=O)N[C@@H](CC(N)=O)C(=O)N[C@@H]([C@@H](C)O)C(=O)N[C@@H](Cc2c[nH]c3c(C)cccc23)C(=O)N[C@@H](CCCNC(N)=O)C(=O)N[C@H](C(=O)N[C@@H](Cc2ccc(OCCN)cc2)C(=O)N[C@@H](Cc2ccc3ccccc3c2)C(=O)N[C@@](C)(CC(C)C)C(=O)N[C@@H](CCC(=O)O)C(=O)N[C@@H](CC(N)=O)C(=O)N[C@@](C)(Cc2ccccc2)C(N)=O)C(C)(C)SSC1(C)C
B9: the “PBMC pSTAT3 IC50 (nM)” value was 2.3 nM.

B10: Compound No. 150 (peptide)
peptide: Ac-[dR][Pen]NT[Trp(7-Me)]K(Ac)[Pen][AEF][2Nal][Thp][αMeE]N[αMeY]-NH2
modifications: disulfide 2-7
SMILES: CC(=O)NCCCC[C@@H]1NC(=O)[C@H](Cc2c[nH]c3c(C)cccc23)NC(=O)[C@H]([C@@H](C)O)NC(=O)[C@H](CC(N)=O)NC(=O)[C@@H](NC(=O)[C@@H](CCCNC(=N)N)NC(C)=O)C(C)(C)SSC(C)(C)[C@@H](C(=O)N[C@@H](Cc2ccc(OCCN)cc2)C(=O)N[C@@H](Cc2ccc3ccccc3c2)C(=O)NC2(C(=O)N[C@@](C)(CCC(=O)O)C(=O)N[C@@H](CC(N)=O)C(=O)N[C@@](C)(Cc3ccc(O)cc3)C(N)=O)CCOCC2)NC1=O
With B10, the “PBMC pSTAT3 IC50 (nM)” value is 4.7 nM.

B11: Compound No. 151 (peptide)
peptide: Ac-[Pen]NT[Trp(7-Me)]K(Ac)[Pen][AEF][2Nal][αMeK]K(Ac)N[αMeY]-NH2
modifications: disulfide 1-6
SMILES: CC(=O)NCCCC[C@@H]1NC(=O)[C@H](Cc2c[nH]c3c(C)cccc23)NC(=O)[C@H]([C@@H](C)O)NC(=O)[C@H](CC(N)=O)NC(=O)[C@@H](NC(C)=O)C(C)(C)SSC(C)(C)[C@@H](C(=O)N[C@@H](Cc2ccc(OCCN)cc2)C(=O)N[C@@H](Cc2ccc3ccccc3c2)C(=O)N[C@@](C)(CCCCN)C(=O)N[C@@H](CCCCNC(C)=O)C(=O)N[C@@H](CC(N)=O)C(=O)N[C@@](C)(Cc2ccc(O)cc2)C(N)=O)NC1=O
On to B11, for which the “PBMC pSTAT3 IC50 (nM)” value was determined as 5.7 nM.
